Results: PMC3097226

B1: CD95 (Fas/APO-1): N118Q (protein)
parent chain: MLGIWTLLPLVLTSVARLSSKSVNAQVTDINSKGLELRKTVTTVETQNLEGLHHDGQFCHKPCPPGERKARDCTVNGDEPDCVPCQEGKEYTDKAHFSSKCRRCRLCDEGHGLEVEINCTRTQNTKCRCKPNFFCNSTVCEHCDPCTKCEHGIIKECTLTSNTKCKEEGSRSNLGWLCLLLLPIPLIVWVKRKEVQKTCRKHRKENQGSHESPTLNPETVAINLSDVDLSKYITTIAGVMTLSQVKGFVRKNGVNEAKIDEIKNDNVQDTAEQKVQLLRNWHQLHGKKEAYDTLIKDLKKANLCTLAEKIQTIILKDITSDSENSNFRNEIQSLV
B2: CD95 (Fas/APO-1): VCN (protein)
parent chain: B1 parent chain
B3: CD95 (Fas/APO-1): N118Q/N136Q (protein)
parent chain: B1 parent chain
B4: CD95 (Fas/APO-1): N136Q (protein)
parent chain: B1 parent chain
B5: CD95 (Fas/APO-1): DMM (protein)
parent chain: B1 parent chain

Key:
[1] = cycloheximide chase, Western blot, HEK293T; conditions: glycan lost; control: WT CD95
[2] = anti-APO-1 surface staining (flow cytometry), transient HeLa; conditions: glycan lost; control: WT CD95
[3] = high molecular weight CD95 complexes after anti-APO-1, Western blot; conditions: glycan lost; control: WT CD95
[4] = confocal microscopy, stable HeLa lines; conditions: glycan lost; control: WT CD95
[5] = anti-APO-1 surface staining, flow cytometry; conditions: glycan changed form; control: untreated SKW6.4 cells

Protein | degradation_or_half_life [1] | localisation_or_trafficking [2] | oligomerisation [3] | localisation_or_trafficking [4] | localisation_or_trafficking [5]
B1 | no change | no change | no change | no change | –
B2 | – | – | – | – | no change
B3 | no change | – | no change | – | –
B4 | no change | no change | no change | no change | –
B5 | – | – | – | – | no change
